{"source": "paper PMC2118993", "about": "(The Journal of Experimental Medicine, 1991)", "key": {"[1]": {"target": "T1, purified I-Ed class II glycoprotein (Mus musculus, UniProt P01904+P01915)", "T1 sequence (P01904 26-255)": "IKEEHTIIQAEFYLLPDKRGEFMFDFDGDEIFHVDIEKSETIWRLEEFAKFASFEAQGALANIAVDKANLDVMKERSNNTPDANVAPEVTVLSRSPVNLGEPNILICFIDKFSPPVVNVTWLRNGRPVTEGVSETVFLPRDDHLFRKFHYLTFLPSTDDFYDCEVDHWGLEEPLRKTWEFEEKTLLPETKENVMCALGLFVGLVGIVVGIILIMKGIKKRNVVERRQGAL", "T1 sequence (P01915 27-264 limits assumed)": "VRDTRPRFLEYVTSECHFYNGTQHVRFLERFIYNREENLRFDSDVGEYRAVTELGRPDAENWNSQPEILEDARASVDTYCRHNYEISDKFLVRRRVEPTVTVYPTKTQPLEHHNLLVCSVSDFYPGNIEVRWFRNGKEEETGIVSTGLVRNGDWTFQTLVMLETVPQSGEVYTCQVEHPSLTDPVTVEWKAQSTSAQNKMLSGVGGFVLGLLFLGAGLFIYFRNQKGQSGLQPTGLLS", "format": "binding"}, "[2]": {"test_system": "purified I-Ad class II glycoprotein", "format": "binding, mouse", "conditions": "immunoassay"}, "[3]": {"target": "I-Ed class II MHC glycoprotein, purified (mouse (endogenous in A20 B lymphoma))", "assay": "ELISA"}}, "note": "Side chains are listed from the residue outwards. Ends that are not written are not given here. * marks the point of attachment. Biotin = O=C1N[C@H]2[C@H](CS[C@H]2CCCCC(=O)*)N1; Ahx = NCCCCCC(=O)O", "data": [{"molecule": "FISEAIIHVLHSR [Myo(106-118), reference compound]", "values": [{"measurement": "inhibition of binding of biotin-HEL(104-120) to I-Ed by unlabeled peptide", "setting": "[1]; 2 μM biotin-HEL(104-120), 24 h, at higher competitor concentrations", "value": "partially inhibited"}]}, {"molecule": "biotin-Myo(106-118): Myo(106-118) biotinylated with biotin-amidocaproate N-hydroxysuccinimide ester at the free α amino group ({Biotin-Ahx}-FISEAIIHVLHSR)", "values": [{"measurement": "binding to I-Ad (in words)", "setting": "[2]", "value": "binds well"}, {"measurement": "optimum pH of binding to I-Ed", "setting": "[1]; 40 h at various pHs, 2 μM biotin-HEL(104-120) or 10 μM biotin-Myo(106-118)", "value": "more acidic pH"}, {"measurement": "binding to I-Ed (in words)", "setting": "[1]; immunoassay", "value": "weakly"}]}, {"molecule": "{Biotin-Ahx}-GMNAWVAWRNRCK([Ahx-Biotin])GTDVY", "note": "[biotin-HEL(104-120)]", "values": [{"measurement": "Kd", "setting": "[3]", "value": 2330, "unit": "nM"}]}]}
